{"source": "patent US20150010525A1", "about": "“Catalytic Tagging System to Study Macro-Molecular Interactions Using Engineered Ubiquitin Ligase and Ubiquitin-Like Proteins to Facilitate Substrate Identification” (THE REGENTS OF THE UNIVERSITY OF CALIFORNIA, priority 2012, published 2015)", "molecules": {"B1": {"name": "Pre-mRNA-splicing factor SPF27: potential XIAP substrate (protein, UniProt O75934 2-225, looked up)", "Pre-mRNA-splicing factor SPF27": "AGTGLVAGEVVVDALPYFDQGYEAPGVREAAAALVEEETRRYRPTKNYLSYLTAPDYSAFETDIMRNEFERLAARQPIELLSMKRYELPAPSSGQKNDITAWQECVNNSMAQLEHQAVRIENLELMSQHGCNAWKVYNENLVHMIEHAQKELQKLRKHIQDLNWQRKNMQLTAGSKLREMESNWVSLVSKNYEIERTIVQLENEIYQIKQQHGEANKENIRQDF"}, "B2": {"name": "SMAC/Diablo homolog, mitochondrial: known IAP substrate (protein, UniProt Q9NR28 22-239, looked up)", "Diablo IAP-binding …": "LCVPVVANFKKRCFSELIRPWHKTVTIGFGVTLCAVPIAQKSEPHSLSSEALMRRAVSLVTDSTSTFLSQTTYALIEAITEYTKAVYTLTSLYRQYTSLLGKMNSEEEDEVWQVIIGARAEMTSKHQEYLKLETTWMTAVGLSEMAAEAAYQTGADQASITARNHIQLVKLQVEEVHQLSRKAETKLAEAQIEELRQKTQEEGEERAESEQEAYLRED"}, "B3": {"name": "Serine protease HtrA2, mitochondrial: known IAP substrate (protein, UniProt O43464 134-458, looked up)", "Serine protease HTRA2, …": "AVPSPPPASPRSQYNFIADVVEKTAPAVVYIEILDRHPFLGREVPISNGSGFVVAADGLIVTNAHVVADRRRVRVRLLSGDTYEAVVTAVDPVADIATLRIQTKEPLPTLPLGRSADVRQGEFVVAMGSPFALQNTITSGIVSSAQRPARDLGLPQTNVEYIQTDAAIDFGNSGGPLVNLDGEVIGVNTMKVTAGISFAIPSDRLREFLHRGEKKNSSSGISGSQRRYIGVMMLTLSPSILAELQLREPSFPDVQHGVLIHKVILGSPAHRAGLRPGDVILAIGEQMVQNAEDVYEAVRTQSQLAVQIRRGRETLTLYVTPEVTE"}, "B4": {"name": "Malate dehydrogenase, mitochondrial: potential cIAP1 substrate (protein, UniProt P40926 25-338, looked up)", "Malate dehydrogenase, …": "AKVAVLGASGGIGQPLSLLLKNSPLVSRLTLYDIAHTPGVAADLSHIETKAAVKGYLGPEQLPDCLKGCDVVVIPAGVPRKPGMTRDDLFNTNATIVATLTAACAQHCPEAMICVIANPVNSTIPITAEVFKKHGVYNPNKIFGVTTLDIVRANTFVAELKGLDPARVNVPVIGGHAGKTIIPLISQCTPKVDFPQDQLTALTGRIQEAGTEVVKAKAGAGSATLSMAYAGARFVFSLVDAMNGKEGVVECSFVKSQETECTYFSTPLLLGKKGIEKNLGIGKVSSFEEKMISDAIPELKASIKKGEDFVKTLK"}, "B5": {"name": "3-hydroxyacyl-CoA dehydrogenase type-2: potential cIAP1 substrate (protein, UniProt Q99714 2-261, looked up)", "3-hydroxyacyl-CoA …": "AAACRSVKGLVAVITGGASGLGLATAERLVGQGASAVLLDLPNSGGEAQAKKLGNNCVFAPADVTSEKDVQTALALAKGKFGRVDVAVNCAGIAVASKTYNLKKGQTHTLEDFQRVLDVNLMGTFNVIRLVAGEMGQNEPDQGGQRGVIINTASVAAFEGQVGQAAYSASKGGIVGMTLPIARDLAPIGIRVMTIAPGLFGTPLLTSLPEKVCNFLASQVPFPSRLGDPAEYAHLVQAIIENPFLNGEVIRLDGAIRMQP"}}}
{"molecular_target": "T1, XIAP (Homo sapiens, UniProt P61081+P98170)", "T1 construct": "The N-terminus (residues 1-434) of XIAP was then fused via a flexible Gly-Gly-Ser-Gly linker to the NEDD8 E2, Ubc12; GST (N, cleaved yes); made in house; host or cells: E. coli BL21 (DE3)", "T1 sequence (P98170+P61081 fused)": "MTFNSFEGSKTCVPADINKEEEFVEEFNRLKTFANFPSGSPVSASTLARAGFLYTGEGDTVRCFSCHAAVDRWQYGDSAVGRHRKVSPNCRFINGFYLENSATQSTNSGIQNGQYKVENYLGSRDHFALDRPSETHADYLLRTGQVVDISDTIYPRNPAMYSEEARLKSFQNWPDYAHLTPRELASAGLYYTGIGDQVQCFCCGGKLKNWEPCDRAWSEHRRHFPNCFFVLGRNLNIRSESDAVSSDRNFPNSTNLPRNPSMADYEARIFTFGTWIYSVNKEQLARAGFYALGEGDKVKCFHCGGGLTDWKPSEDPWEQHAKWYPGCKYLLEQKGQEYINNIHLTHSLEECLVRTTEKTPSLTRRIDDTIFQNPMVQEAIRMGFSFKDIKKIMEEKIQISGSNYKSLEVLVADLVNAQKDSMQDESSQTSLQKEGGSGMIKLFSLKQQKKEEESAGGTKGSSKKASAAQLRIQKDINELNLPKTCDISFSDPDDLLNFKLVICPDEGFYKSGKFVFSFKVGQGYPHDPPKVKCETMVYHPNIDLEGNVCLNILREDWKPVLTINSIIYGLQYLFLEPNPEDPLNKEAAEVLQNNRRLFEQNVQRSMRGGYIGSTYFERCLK", "test": "SILAC mass spectrometry screen for XIAP substrates with NEDDylator^XIAP in apoptotic Jurkat cell lysate", "type": "biochemical", "conditions": "Heavy lysate with Ubc12", "method": "Jurkat cells were grown in media containing either light or heavy isotopes of lysine and arginine and induced to undergo apoptosis with STS. Light cell extracts were incubated with the respective catalytic tagging system for each of the two IAPs and the heavy extracts labeled only with the wild-type NEDD8 E2, Ubc12. 64 mg regular L-Lys and 83.6 mg L-Arg.HCl were added to 1 liter RPMI-1640 minus L-Lys and L-Arg (Thermo/Pierce), 10% fetal bovine serum (FBS) to generate “Light” medium. 100 mg ^13C6^15N2 L-Lys.2HCl and 86 mg ^13C6 L-Arg.HCl (Cambridge Isotope) were added to the same amount of medium to generate the “Heavy” medium. Jurkat cells were cultured separately in “Light” or “Heavy” medium for 7 days to allow for thorough isotope incorporation. For IAP substrate identification, 400 million cells were treated with 2 μM STS for 4 hours, harvested, lysed in M-PER mammalian protein extraction buffer (Thermo/Pierce) in the presence of protease inhibitors (100× ProteoBlock cocktail, Fermentas) and mixed with cell lysate prepared from 400 million untreated cells. The NEDDylated proteins were isolated under denaturing conditions via the HB-NEDD8 tag using a tandem affinity pull down procedure (Tagwerker et al., Mol Cell Proteomics 5:737-748 (2006)) (FIG. 11). Purified NEDDylated proteins were trypsinized and analyzed with tandem mass spectrometry (LC-MS/MS).\n(§1) For SILAC experiments, Jurkat cells were cultured separately in “Light” (supplemented with regular Lys and Arg) or “Heavy” (supplemented with ^13C6^15N2 Lys and ^13C6 Arg) medium for 7 days to allow for thorough isotope incorporation. Apoptotic “Light” and “Heavy” cell extracts were prepared individually. The lysates were cleared by spinning and then diluted in 50 mM HEPES pH 7.4, 150 mM NaCl to 5 mg/ml and supplemented with 5 mM ATP, 10 mM MgCl2. Endogenous NEDD8 E1 is cell lysate was used to catalyze the reaction. HB-NEDD8 was added to both lysate at mass ratio 1:500; the catalytic tagging system was added to the “Light” lysate at mass ratio 1:1000. Equal molar of Ubc12 was added to the “Heavy” lysate. […] NEDDylated proteins were separated by one-dimensional SDS-PAGE, and trypsinized for LC-MS/MS analysis.\nFor liquid chromatography—Tandem mass spectrometry (LC-MS/MS) analysis, the tryptic peptides were first desalted and concentrated with a C18 Ziptip (Millipore). LC-MS/MS was carried out by reverse phase LC interfaced with a LTQ-Orbitrap (ThermoFisher Scientific) hybrid mass spectrometer. A nanoflow HPLC (NanoAcquity UPLC system, Waters Corporation) was equipped with a trap column (180 μm×20 mm, 5 μm SymmetryC18, from Waters) and an analytical column (100 μm×100 mm, 1.7 μm BEH130C18, from Waters). […]"}
{"molecule": "B1", "L/H (Light/Heavy ratio)": 4.35}
{"molecule": "B2", "L/H (Light/Heavy ratio)": 7.39}
{"molecule": "B3", "L/H (Light/Heavy ratio)": 21.4}
{"molecular_target": "T2, cIAP1 (Homo sapiens, UniProt P61081+Q13490)", "T2 construct": "cIAP1(ΔR) (residues 1-555); GST (N, cleaved yes); made in house; host or cells: E. coli BL21 (DE3)", "T2 sequence (Q13490+P61081 fused)": "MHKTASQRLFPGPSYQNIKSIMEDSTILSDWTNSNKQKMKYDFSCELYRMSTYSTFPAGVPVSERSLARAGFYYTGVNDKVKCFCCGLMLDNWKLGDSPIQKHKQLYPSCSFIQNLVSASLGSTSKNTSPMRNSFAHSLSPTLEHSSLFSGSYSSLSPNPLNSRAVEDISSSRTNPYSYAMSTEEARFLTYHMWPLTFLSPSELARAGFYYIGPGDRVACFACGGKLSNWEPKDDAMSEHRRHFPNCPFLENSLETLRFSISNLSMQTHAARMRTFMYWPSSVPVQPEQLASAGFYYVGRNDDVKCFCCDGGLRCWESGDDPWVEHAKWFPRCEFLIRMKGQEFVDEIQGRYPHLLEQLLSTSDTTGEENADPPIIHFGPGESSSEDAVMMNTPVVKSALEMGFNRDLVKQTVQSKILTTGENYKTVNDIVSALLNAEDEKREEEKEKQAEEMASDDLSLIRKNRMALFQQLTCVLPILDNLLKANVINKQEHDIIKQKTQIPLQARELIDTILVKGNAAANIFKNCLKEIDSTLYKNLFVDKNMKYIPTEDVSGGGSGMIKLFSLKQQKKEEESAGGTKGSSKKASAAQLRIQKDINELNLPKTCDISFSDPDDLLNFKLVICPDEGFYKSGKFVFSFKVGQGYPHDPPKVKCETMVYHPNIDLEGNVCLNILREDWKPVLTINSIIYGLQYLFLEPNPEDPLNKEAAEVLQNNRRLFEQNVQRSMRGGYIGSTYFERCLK", "test": "SILAC mass spectrometry screen for cIAP1 substrates with NEDDylator^cIAP1 in apoptotic Jurkat cell lysate", "type": "biochemical", "conditions": "Light lysate with NEDDylator^cIAP1, Heavy lysate with Ubc12", "method": "Jurkat cells were grown in media containing either light or heavy isotopes of lysine and arginine and induced to undergo apoptosis with STS. Light cell extracts were incubated with the respective catalytic tagging system for each of the two IAPs and the heavy extracts labeled only with the wild-type NEDD8 E2, Ubc12. […] 100 mg ^13C6^15N2 L-Lys.2HCl and 86 mg ^13C6 L-Arg.HCl (Cambridge Isotope) were added to the same amount of medium to generate the “Heavy” medium. Jurkat cells were cultured separately in “Light” or “Heavy” medium for 7 days to allow for thorough isotope incorporation. For IAP substrate identification, 400 million cells were treated with 2 μM STS for 4 hours, harvested, lysed in M-PER mammalian protein extraction buffer (Thermo/Pierce) in the presence of protease inhibitors (100× ProteoBlock cocktail, Fermentas) and mixed with cell lysate prepared from 400 million untreated cells. […] Purified NEDDylated proteins were trypsinized and analyzed with tandem mass spectrometry (LC-MS/MS).\nas §1\nFor liquid chromatography—Tandem mass spectrometry (LC-MS/MS) analysis, the tryptic peptides were first desalted and concentrated with a C18 Ziptip (Millipore). LC-MS/MS was carried out by reverse phase LC interfaced with a LTQ-Orbitrap (ThermoFisher Scientific) hybrid mass spectrometer. A nanoflow HPLC (NanoAcquity UPLC system, Waters Corporation) was equipped with a trap column (180 μm×20 mm, 5 μm SymmetryC18, from Waters) and an analytical column (100 μm×100 mm, 1.7 μm BEH130C18, from Waters). Peptides were eluted over a linear gradient from 2% solvent A (0.1% formic acid in water) to 35% solvent B (0.1% formic acid in acetonitrile) at 350 nL/min over 35 min. MS and MS/MS spectra were acquired in a data-dependent mode with MS spectra acquired in the Orbitrap at 30,000 resolving power and 6 CID MS/MS spectra acquired per MS in the LTQ linear ion trap. Dynamic exclusion was set at 90 seconds to prevent repeated MS/MS on the same precursor ion.\nThe identified peptides were searched against a random decoy protein database for evaluating the false positive rates. […] The decoy peptides were removed from the data. Protein IDs were assigned only when at least two unique peptides were identified from the same protein. For SILAC experiment, Light/Heavy ratios for the identified peptides were calculated, using ProteinProspector. The media Light/Heavy ratios of all the peptides identified for each protein were used to represent the Light/Heavy ratio of the protein."}
{"molecule": "B2", "L/H (Light/Heavy ratio)": 53.4}
{"molecule": "B3", "L/H (Light/Heavy ratio)": 39.2}
{"molecule": "B4", "L/H (Light/Heavy ratio)": 4.35}
{"molecule": "B5", "L/H (Light/Heavy ratio)": 4.1}
